Article PMC8565734, “Construction of ferritin hydrogels utilizing subunit–subunit interactions” (PLoS ONE, 2021)

Target: the molecule itself
Test: SEC; Superdex 200 increase 10/300 GL, 50 mM potassium phosphate buffer, pH 7.0, 4°C; solution obtained after heating the apoferritin hydrogel at 90°C for 30 min; sizes estimated from a standard curve of standard proteins

B1: horse L apoferritin without eight N-terminal residues (Fer8) (domain or fragment, UniProt P02791 9-175, looked up)
chain: YSTEVEAAVNRLVNLYLRASYTYLSLGFYFDRDDVALEGVCHFFRELAEEKREGAERLLKMQNQRGGRALFQDLQKPSQDEWGTTLDAMKAAIVLEKSLNQALLDLHALGSAQADPHLCDFLESHFLDEEVKLIKKMGDHLTNIQRLVGSQAGLGEYLFERLTLKHD
notes: horse L ferritin (ferritin light chain), printed as 'without eight N-terminal residues'; theoretical [Fer8 subunit + H+] = 19148; The limit 9-end follows from 'without eight N-terminal residues'; also called recombinant horse apoferritin; Fer8 subunit; source: E. coli Nova blue cells (plasmid pKIT8), purified (heat 60°C, Q Sepharose, HiTrap Q HP, SEC); gelled by acid denaturation and …
  stoichiometry N: 24
